Substrate: O=C(O)[C@@H](CO)OP(=O)(O)O
Assay: purified protein
Type: biochemical, Chloroflexus aurantiacus
Details: 25 °C, pH 6.5, 50 mM Bis-Tris propane, 5 mM MgCl2, crystal structure with 2-PGA in active site, open conformation

B1: EnoCa (enolase-1 from Chloroflexus aurantiacus) (Chloroflexus aurantiacus J-10-fl) (protein)
chain: MSTLIEAIVAREVLDSRGNPTIEVDVRLESGDVGRAIVPSGASTGAHEALELRDGDKSRYNGKGVLKAVQAVNEDIAEALIGFDAADQIALDQELIALDGTPNKSKLGANAILGVSLAAAKAAAAAFGLPLYRYLGGVYAHVLPVPMMNIMNGGQHATNSTDFQEFMIMPVGAESFREGLRWGAEIYHMLKKVIHDRGFSTTVGDEGGFAPSLPTNDAPLQLIMEAIEKAGYRPGEQIVIALDPATTEIFEDGKYHLKREGRSLSSAEMVDYWVDLVNRYPIISLEDGLAEDDWEGWALLRAKLGDRVQLVGDDFLVTNVQRLQRAIEAKAANSILIKLNQIGSLTETLSAIQLAQRSGWTAVVSHRSGESEDVTIADLVVATNAGQIKTGAPARTDRIAKYNQLLRIEEELGSAARYAGRSAFKV
notes: native protein purified from C. aurantiacus cells, untagged; homodimer, subunit ~46 kDa, total ~92-96 kDa
With B1 as the protein, how does the Km read?
The Km was 160 ± 10 µM.

From PMC4450660, “Biochemical and Structural Characterization of Enolase from Chloroflexus aurantiacus: Evidence for a Thermophilic Origin” (Frontiers in Bioengineering and Biotechnology, 2015)
